Laboratory results: publication PMC7035113

Target: SA2-SCC1 complex (SA2 80-1060 in complex with SCC1 281-420) (UniProt Q8N3U4)
Experiment: ITC

Chain of SA2-SCC1 complex (SA2 80-1060 in complex with SCC1 281-420) (Q8N3U4 80-1060, chain 1 of 2): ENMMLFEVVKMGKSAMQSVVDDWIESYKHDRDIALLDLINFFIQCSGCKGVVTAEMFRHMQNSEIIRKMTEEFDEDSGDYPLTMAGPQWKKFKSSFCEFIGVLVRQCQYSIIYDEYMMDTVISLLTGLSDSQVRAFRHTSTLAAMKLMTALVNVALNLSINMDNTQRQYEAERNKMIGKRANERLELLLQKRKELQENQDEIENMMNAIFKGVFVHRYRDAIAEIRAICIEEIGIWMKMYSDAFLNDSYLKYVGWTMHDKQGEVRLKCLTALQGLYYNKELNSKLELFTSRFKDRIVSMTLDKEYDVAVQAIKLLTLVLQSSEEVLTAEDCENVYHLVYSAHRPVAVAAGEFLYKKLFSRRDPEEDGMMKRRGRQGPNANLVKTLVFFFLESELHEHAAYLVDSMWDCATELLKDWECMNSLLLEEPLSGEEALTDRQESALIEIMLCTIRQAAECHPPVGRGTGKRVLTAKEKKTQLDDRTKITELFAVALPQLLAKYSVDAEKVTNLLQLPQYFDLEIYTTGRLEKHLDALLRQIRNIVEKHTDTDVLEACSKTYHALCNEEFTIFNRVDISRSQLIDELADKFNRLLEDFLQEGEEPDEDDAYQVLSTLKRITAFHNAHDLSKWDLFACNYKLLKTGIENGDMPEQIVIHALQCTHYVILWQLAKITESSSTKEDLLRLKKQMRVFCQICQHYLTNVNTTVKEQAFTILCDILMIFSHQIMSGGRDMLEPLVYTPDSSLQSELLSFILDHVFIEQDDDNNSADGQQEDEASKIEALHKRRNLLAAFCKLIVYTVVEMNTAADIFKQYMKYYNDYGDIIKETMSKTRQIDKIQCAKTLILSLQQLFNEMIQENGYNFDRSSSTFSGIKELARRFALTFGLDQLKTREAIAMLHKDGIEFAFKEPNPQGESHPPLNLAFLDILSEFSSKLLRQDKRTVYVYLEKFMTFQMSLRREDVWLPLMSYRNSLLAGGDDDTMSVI
Chain of SA2-SCC1 complex (SA2 80-1060 in complex with SCC1 281-420) (O60216 281-420, chain 2 of 2, further chain): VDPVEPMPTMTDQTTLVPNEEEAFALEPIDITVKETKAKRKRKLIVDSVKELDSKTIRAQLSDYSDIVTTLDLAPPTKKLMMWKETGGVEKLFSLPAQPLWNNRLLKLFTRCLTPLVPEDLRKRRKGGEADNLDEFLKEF

Substance “Shugoshin (SGO1) peptide 331-341 (from UniProt Q5FBB7 331-341)” has a Kd of 13.5 µM and a dH of -10.7 kcal/mol.
